In patent publication US20130101595A1:

Legend:
[1] = molecular target: recombinant human IL-18 (rhIL-18) (human) (UniProt Q14116); experiment: cell-based or functional assay
[2] = molecular target: recombinant human IL-18 (rhIL-18) (human) (UniProt Q14116); experiment: SPR (BIAcore), biotinylated rhIL-18 on streptavidin chip, antibody in solution

B1: 125-2H (antibody, from another filing, V domains shown)
VH: EIQLQQSGPELVKPGASVKVSCKASGYSFTDYFIYWVKQSHGKSLEWIGDIDPYNGDTSYNQKFRDKATLTVDQSSTTAFMHLNSLTSEDSAVYFCARGLRFWGQGTLVTVSA
VL: DIQMTQSPSSLSASLGERVSLTCRASQDIGSKLYWLQQEPDGTFKRLIYATSSLDSGVPKRFSGSRSGSDYSLTISSLESEDFVDYYCLQYASSPYTFGGGTKLAIKR
[1]
  IC50 Value, KG-1 cell-based IL-18 neutralization assay (hIFN-gamma): 0.2 nM
[2]
  Kd: 0.62 nM
  koff: 0.00011 s⁻¹
  kon: 170000 M⁻¹ s⁻¹
